Consider two substances from PMC8626645 (Molecular Pharmacology, 2021).

The conditions of data set [1]: in vivo; cited from earlier work. An excerpt: Pathologic increases in blood glucose, the central metabolic defect in T2D, occur chiefly because of failure of pancreatic β cells to release enough of the glucoregulatory hormone insulin and overweight-related tissue resistance to insulin action.
The target of data set [2] is SNAP-GLP-1R (HEK293-SNAP-GLP-1R cells) (UniProt P43220). Briefly: FRET or BRET. In general terms: In BRET a luciferase serves as donor, and the signal depends on an acceptor being close.
Chain of UniProt P43220 (P43220 24-463): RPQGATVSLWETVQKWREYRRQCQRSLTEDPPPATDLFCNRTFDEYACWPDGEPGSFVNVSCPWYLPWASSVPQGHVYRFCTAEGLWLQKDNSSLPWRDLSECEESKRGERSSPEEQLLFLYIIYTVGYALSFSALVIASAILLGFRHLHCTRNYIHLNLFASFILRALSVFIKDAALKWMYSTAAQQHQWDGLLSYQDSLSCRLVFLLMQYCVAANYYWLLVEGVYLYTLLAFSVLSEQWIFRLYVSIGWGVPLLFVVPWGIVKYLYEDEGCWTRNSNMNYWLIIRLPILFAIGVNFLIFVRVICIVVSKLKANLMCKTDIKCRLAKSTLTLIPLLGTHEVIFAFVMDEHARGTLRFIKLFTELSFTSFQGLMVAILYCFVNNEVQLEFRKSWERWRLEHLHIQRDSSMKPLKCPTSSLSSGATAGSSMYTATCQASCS

As to “GLP-1(7-36)NH2: the endogenous ligand for GLP-1R”, in data set [1], the “inactivation in the circulation” value was “enzymatically inactivated in the circulation within minutes”.

In data set [2], “exendin-4 (from UniProt P26349 48-87) (peptide)” registered a Log Ki (M) of -9.2 log M.
